Laboratory results: US20250382376A1 (FUDAN UNIVERSITY, published 2025)

T1: extracellular domain of human CD73 protein, C-terminus polyhistidine-tagged (human, UniProt P21589 27-547)
T1 construct: also the immunogen; also called CD73-ECD; human CD73-ECD
T1 sequence: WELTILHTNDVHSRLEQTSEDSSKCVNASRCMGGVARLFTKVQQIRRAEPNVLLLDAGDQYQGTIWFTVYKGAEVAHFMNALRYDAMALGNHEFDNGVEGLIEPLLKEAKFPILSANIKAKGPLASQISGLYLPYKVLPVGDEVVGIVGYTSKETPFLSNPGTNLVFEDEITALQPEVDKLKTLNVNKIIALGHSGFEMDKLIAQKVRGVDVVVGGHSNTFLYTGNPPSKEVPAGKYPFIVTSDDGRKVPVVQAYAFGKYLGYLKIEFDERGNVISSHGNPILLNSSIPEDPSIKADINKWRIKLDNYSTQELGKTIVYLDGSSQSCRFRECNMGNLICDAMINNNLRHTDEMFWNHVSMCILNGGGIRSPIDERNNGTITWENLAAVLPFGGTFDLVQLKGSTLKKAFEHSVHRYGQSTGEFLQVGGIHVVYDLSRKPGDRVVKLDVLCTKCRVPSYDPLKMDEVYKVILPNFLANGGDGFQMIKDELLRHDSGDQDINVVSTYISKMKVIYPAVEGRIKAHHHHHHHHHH

T2: CD73 on the surface of human cells (human, UniProt P21589 27-549)
T2 construct: whole, on cells; The cell line of each value is named under assay or readout; also called CD73 on the surface of tumor cells; CD73 enzyme on the surface of MDA-MB-231 cells
T2 sequence (looked up): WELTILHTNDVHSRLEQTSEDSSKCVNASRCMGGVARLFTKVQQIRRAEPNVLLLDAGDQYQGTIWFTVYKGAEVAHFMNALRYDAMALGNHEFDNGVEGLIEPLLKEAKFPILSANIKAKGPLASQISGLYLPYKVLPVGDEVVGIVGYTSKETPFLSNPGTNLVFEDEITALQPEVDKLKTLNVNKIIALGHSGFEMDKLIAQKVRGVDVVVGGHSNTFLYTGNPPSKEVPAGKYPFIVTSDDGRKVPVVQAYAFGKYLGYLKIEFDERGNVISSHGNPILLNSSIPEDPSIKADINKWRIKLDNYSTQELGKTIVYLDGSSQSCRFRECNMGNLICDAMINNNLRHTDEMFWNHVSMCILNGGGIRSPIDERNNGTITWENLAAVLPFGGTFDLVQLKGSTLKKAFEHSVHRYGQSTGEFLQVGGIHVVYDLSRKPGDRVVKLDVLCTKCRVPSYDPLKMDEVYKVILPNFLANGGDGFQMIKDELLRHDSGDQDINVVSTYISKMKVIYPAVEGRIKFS

T3: human recombinant CD73 enzyme (CD73 extracellular region) (human, UniProt P21589 27-549)
T3 sequence (looked up): T2 sequence (looked up)

B1: chimeric nanobody 4-D04 (Fc fusion)
VHH: QLQLVESGGGLVQPGGSLRLSCAASGFTLDYYNIGWFRQAPGKEREGVSCISSSEGSTYYADSVKGRFTISRDNAKNTVYLQMNSLKPEDTAVYYCAADRYYYCSLHVSQYDYWGQGTLVTVSS
notes: Human-alpaca chimeric antibody
B2: chimeric nanobody 3-D7 (Fc fusion)
VHH: QRQLVESGGGLVQPGGSLRLSCAASGFLLDYYVIGWFRQAPGKEREGVSCISGSDRSTYYADSVKGRFTISRDNAKNTVYLQMNSLKPEDTAVYFCAADPSPVTVQAMCLPRFPVPYWGQGTQVTVST
notes: Human-alpaca chimeric antibody (VHH on hIgG1 Fc); Only the VHH is tied to the tested molecule; 37-39 exist for 3-D7-FC1/FC2/FC3; also called original antibody 3-D7
B3: chimeric nanobody 5-E11 (Fc fusion)
VHH: ALQLVESGGGLVQPGGSLRLSCEVSGFTLDYYNIGWFRQAPGKEREGVSCSSNSGGSTYYADSVKGRFTISRDNAKNTVYLQMNSLKPEDTGVYYCAAYRGWHPSLDARVYDYWGQGTEVTVSS
notes: Human-alpaca chimeric antibody (VHH on hIgG1 Fc); Only the VHH is tied to the tested molecule; also called original antibody 5-E11
B4: chimeric nanobody 4-B02 (Fc fusion)
VHH: EVQLVESGGGLVQPGGSLRLSCAASGFPLDYYSIGWFRQAPGKEREGVSCIGSSDGSTYYADSVKGRFTISRDNAENTVWLQMNSLKPEDTAVYYCAALKYYYCSGHEAIYDYWGQGTQVTVSG
notes: as for B1

Target: T1, extracellular domain of human CD73 …
Experiment: ForteBio OCTET R2 (the filing calls it SPR); antibody on Protein A sensor, CD73-ECD in solution; traces labelled 100, 50, 25, 12.5, 6.25
Experimental: (§1) Surface plasmon resonance (SPR) assay: Protein A sensor was used to immobilize the antibodies, with an immobilization height of about 1.5 nM. […] Affinity detection: equilibrium for 60 s, binding for 180 s, dissociation for 180 s, at a detection temperature of 25° C. Kinetic characterization analysis was performed using the ForteBio OCTET R2 system.

| koff | kon | Binder |
| --- | --- | --- |
| 0.000277 s⁻¹ | 301000 M⁻¹ s⁻¹ | B1 |
| 0.000445 s⁻¹ | 223000 M⁻¹ s⁻¹ | B2 |
| 0.000318 s⁻¹ | 385000 M⁻¹ s⁻¹ | B3 |
| 0.000209 s⁻¹ | 263000 M⁻¹ s⁻¹ | B4 |

Target: T1, extracellular domain of human CD73 …
Experiment: SPR as the filing names it (ForteBio OCTET R2); antibody on Protein A sensor, CD73-ECD in solution, 25 C
Experimental: as §1

| Kd | Binder |
| --- | --- |
| 0.919 nM | B1 |
| 2 nM | B2 |
| 0.826 nM | B3 |
| 0.795 nM | B4 |

Target: T2, CD73 on the surface of human cells
Experiment: Flow cytometry on NCI-H1373 cells, PE-labelled secondary antibody [panel B]
Experimental: (§2) 100 μL of the test antibodies diluted from 10 μg/mL to 0.016 μg/mL in a 5-fold gradient were used as the primary antibodies, and were mixed with 1×10⁵ tumor cells suspended in 100 μL RPMI-1640 serum-free medium to make a final concentration of 5 μg/mL diluted to 0.008 μg/mL, and then incubated at 4° C. for 1 h. The cells were washed twice with PBS to remove unbound primary antibodies, and then the target cells were incubated with 200 μLPE-labeled secondary antibody at 2 μg/mL at 4° C. for 30 min. The cells were washed twice with PBS to remove unbound secondary antibodies, and finally the cells were resuspended in 200 μL PBS. The binding affinity of the test antibodies to CD73 on the surface of the corresponding cells was measured by flow cytometry.

| Max MFI | Binder |
| --- | --- |
| 220000 MFI | B1 |
| 200000 MFI | B2 |
| 191000 MFI | B3 |
| 206000 MFI | B4 |

Target: T2, CD73 on the surface of human cells
Experiment: cell-based or functional assay

| EC50, reversal of the AMP inhibition of human T lymphocyte proliferation | IC50, inhibition of AMP hydrolysis by CD73 on MDA-MB-231 cells | Binder |
| --- | --- | --- |
| 2.5 ng/mL | 0.093 µg/mL | B1 |
| 24.7 ng/mL | 0.483 µg/mL | B2 |
| 0.8 ng/mL | 0.088 µg/mL | B3 |
| 1.2 ng/mL | 0.083 µg/mL | B4 |

Target: T3, human recombinant CD73 enzyme (CD73 …)
Experiment: cell-based or functional assay

| IC50, inhibition of AMP hydrolysis by recombinant human CD73 enzyme (CellTiter-Glo) | IC50, inhibition of the catalytic function of recombinant human CD73 enzyme | Binder |
| --- | --- | --- |
| 5.63 ng/mL | – | B1 |
| 38.2 ng/mL | 36.3 ng/mL | B2 |
| 9.47 ng/mL | – | B3 |
| 4.66 ng/mL | – | B4 |

Target: T2, CD73 on the surface of human cells
Experiment: Flow cytometry on SW1573 cells, PE-labelled secondary antibody [panel A]
Experimental: as §2

| Max MFI | Binder |
| --- | --- |
| 71300 MFI | B1 |
| 71000 MFI | B2 |
| 69600 MFI | B3 |
| 73800 MFI | B4 |

Target: T2, CD73 on the surface of human cells
Experiment: Flow cytometry on MDA-MB-231 cells, PE-labelled secondary antibody [panel A]
Experimental: as §2

| Max MFI | Binder |
| --- | --- |
| 79300 MFI | B1 |
| 69600 MFI | B2 |
| 64500 MFI | B3 |
| 69500 MFI | B4 |

Target: T2, CD73 on the surface of human cells
Experiment: flow cytometry on NCI-H1975 cells
Experimental: as §2

| EC50 | Binder |
| --- | --- |
| 0.068 µg/mL | B1 |
| 0.106 µg/mL | B2 |
| 0.057 µg/mL | B3 |
| 0.055 µg/mL | B4 |

Target: T1, extracellular domain of human CD73 …
Experiment: ELISA on coated human CD73-ECD, HRP-protein A detection; fitted upper plateau of the OD450 curve
Set-up: unit not given here
Experimental: The CD73 protein extracellular region (CD73-ECD) was diluted to 1 μg/mL using the coating solution, and an ELISA plate was coated at 100 μL/well at 4° C. overnight. Excess antigens were washed away, and the plate was blocked with 1% BSA at room temperature for 2 hours. Then, 5-fold gradient dilutions of each monoclonal antibody were added at 100 μL/well and incubated at room temperature for 1 hour. Unbound antibodies were washed away, and an appropriate concentration of Staphylococcal protein A labeled with horseradish peroxidase was added at 100 μL/well and incubated at room temperature for 0.5 hours. Unbound secondary antibodies were washed away, and TMB color development solution was added to react for about 15 minutes. 1M HCL was added at 50 µL/well to terminate the color development reaction, and then the absorbance was measured at 450 nm and the data was analyzed.

| Top (%) | Binder |
| --- | --- |
| 2.08 | B1 |
| 1.79 | B2 |
| 2.28 | B3 |
| 2 | B4 |

Target: T2, CD73 on the surface of human cells
Experiment: Flow cytometry on PC9 cells, PE-labelled secondary antibody [panel A]
Experimental: as §2

| Max MFI | Binder |
| --- | --- |
| 65000 MFI | B1 |
| 58800 MFI | B2 |
| 58900 MFI | B3 |
| 61600 MFI | B4 |
